Biological target: Recombinantly expressed GPIb protein fragment of a gain-of-function mutant of the human GPIb protein (human) (UniProt P07359)
Assay: latex agglutination VWF activity assay; HBR total protein up to 0.02 mg/mL in solution, comparison control

UniProt P07359, sequence (P07359 other isoform, or with tags, fused parts or gaps mutant): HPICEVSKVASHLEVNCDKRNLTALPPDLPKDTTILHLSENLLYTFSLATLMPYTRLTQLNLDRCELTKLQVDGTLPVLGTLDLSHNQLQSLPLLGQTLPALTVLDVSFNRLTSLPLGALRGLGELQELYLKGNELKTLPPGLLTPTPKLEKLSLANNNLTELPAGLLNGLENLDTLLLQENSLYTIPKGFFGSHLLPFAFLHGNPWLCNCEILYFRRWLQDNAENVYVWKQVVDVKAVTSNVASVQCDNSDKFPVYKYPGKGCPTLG

reduction of the VWF activity measured: < 2.6%
Substance: HBR-1 reagent (Heterophilic Blocking Reagent 1, Scantibodies Laboratory, Inc.) containing a mixture of mouse immunoglobulins

From patent publication US20250224393A1
